Reference: US10323078B2, “Isolated peptides and fragments thereof from fibrinogen for use as drugs, particularly in skin inflammatory diseases” (Universite Paris Descartes, priority 2015, dated 2019)

Legend:
[1] = test system: keratinocytes and fibroblasts; experiment: IL-8 production by cells stimulated with P. acnes, overall statement; type: cell-based, human; conditions: the 3 bacterial tested strains
Protocol: (§1) For experiences of stimulation with P. acnes, cells were incubated with the P. acnes suspension adjusted at the appropriate concentration, pre-treated for 1 h at 37° C. or not with fibrinogen recombinant peptides Fg1 and Fg2 at the concentrations 0.87, 1.75, 3.5 or 7 μM for the desired period of time at 37° C. in 5% CO2.
Human IL-1ß, IL-8, IL-12, hBD-2, and TNF-α protein concentration was measured in the supernatants of stimulated cells using various ELISA Set kits (Ready-Set-Go kit from eBioscience for acne experiments, and for psoriasis experiments the Duo set IL-8 kit from R&D Systems and the BD-2 Human Development (hBD-2) from Peprotech) according to the manufacturer's instructions. We used serial dilutions of recombinant human IL-1ß, IL-8, IL-12 and TNF-α for standard curve. The optical density was determined at 450 nm at a wavelength correction of 540 nm.
To assess the efficacy of Fg1 recombinant peptide, the production of O2^∘− and H2O2 by HaCaT cells NHDK, THP-1, MRC5 and HDF stimulated by pretreated P. acnes strains 6919, RON and PIE was measured. The amount of ROS produced was compared to that produced by the stimulated cells with untreated bacteria. Production baseline was obtained by measuring ROS on unstimulated cells. The production of IL-1ß, IL-8, IL-12 and TNF-α was also measured in all conditions cited above. […]

HaCaT cells = experiment: O2°− production by P. acnes-stimulated HaCaT (spectrofluorimetry, DHE); type: cell-based, human; conditions: bacteria first pretreated, 0.87 to 7 μM
Protocol: FIG. 14: Dose-dependent inhibition of O2^∘− production by keratinocytes stimulated by P. acnes pre-treated by recombinant peptide. HaCaT cell were incubated for 18 h with P. acnes PIE strain at a concentration adjusted to 0.2 of absorbance at 600 nm (blue bar) and with P. acnes pretreated with recombinant peptide Fg1 (light gray bar) and Fg2 (dark gray bar). Measurement of superoxide anion production was realized by spectrofluorometry as described in Materials and Methods. Control experiment was done on unstimulated HaCaT cell (red bar). Data are means±S.D. of three separate experiments. Statistical significance is indicated by * (P<0.05), ** (P<0.01), *** (P<0.001), and **** (P<0.0001), respectively.
as §1
All cells lines (5·10^4 to 10^5 cells/well) were seeded in 96-well plates (Corning Costar, Brumath, France) and treated as previously described. After stimulation, cells were washed three times in PBS and incubated with 100 μl per wells of 5 μM DHE (for determination of O2^●−) or 5 μM H2-DCFDA (for determination of H2O2) for 30 min as described previously and fluorescence intensity was recorded every hour over a period of 5 h. Fluorescence excitation/emission maxima were for DHE: 480/610 nm and for H2-DCFDA: 507/525 nm. At the end of the experiment, the number of adherent cells was evaluated by the crystal violet assay as described below. […] Levels of ROS were calculated in each sample as follows: reactive oxygen species rate (arbitrary units/min/10^6 cells)=(fluorescence intensity [arbitrary units] at T5h—fluorescence intensity [arbitrary units] at To/300 minutes/number of adherent cells as measured by the crystal violet assay, and were expressed as arbitrary unit (A.U.). […]

B1: MKRMVSWSFHKLKTMKHLLLLLLCVFLVKSQGVNDNEEGFFSARGHRPLDKKREEAPSLRPAPPPISGGGYRARPAKAAATQKKVERKAPDAGGCLHADPDLGVLC (protein)
chain: MKRMVSWSFHKLKTMKHLLLLLLCVFLVKSQGVNDNEEGFFSARGHRPLDKKREEAPSLRPAPPPISGGGRARPAKAAATQKKVERKAPDAGGCLHADPDLGVLCMKRMVSWSFHKLKTMKHLLLLLLCVFLVKSQGVNDNEEGFFSARGHRPLDKKREEAPSLRPAPPPISGGGYRARPAKAAATQKKVERKAPDAGGCLHADPDLGVLC
modifications: GST fusion; fragment Fg1
notes: fragment of Bß chain of human fibrinogen having 106 amino acids; recombinant GST-fused peptide expressed in E. coli
- Decrease of the production of IL-8 [1]: dose-response effect on the decrease of the production of IL-8
- Inhibition of Superoxide anion (O2°−) production (HaCaT cells; P. acnes 6919, set I): pos
- Inhibition of Superoxide anion (O2°−) production (HaCaT cells; P. acnes PIE, set I): pos
- Inhibition of Superoxide anion (O2°−) production (HaCaT cells; P. acnes RON, set I): pos
